Tests used:
[1] = biological target: SmGdpP74 (cytosolic region of Streptococcus mutans GdpP, residues 74-654) (Streptococcus mutans strain NCTC10449); assay: SEC
[2] = biological target: SmGdpP74 (cytosolic region of Streptococcus mutans GdpP, residues 74-654) (Streptococcus mutans strain NCTC10449); assay: cryo-EM structure
[3] = biological target: SmGdpP74 (cytosolic region of Streptococcus mutans GdpP, residues 74-654) (Streptococcus mutans strain NCTC10449); assay: cryo-EM structure; remark: listed apart in the source
[4] = biological target: SmGdpP74 (cytosolic region of Streptococcus mutans GdpP, residues 74-654) (Streptococcus mutans strain NCTC10449); assay: cryo-EM structure; remark: listed apart in the source
[5] = biological target: SmGdpP74 (cytosolic region of Streptococcus mutans GdpP, residues 74-654) (Streptococcus mutans strain NCTC10449); assay: AUC

Measured: stoichiometry N

SmGdpP74 (cytosolic region of Streptococcus mutans GdpP, residues 74-654) (domain or fragment)
4: all assays above

From publication doi:10.1101/2025.07.04.663224
